In patent US20100239594A1 (IBIO, published 2010):

B1: PA-1 huMAb, plant-produced glycosylated PA antibody (antibody, V domains shown)
VH: QVQLVQSGAEVKKPGASVKVSCKASGYTFTSNAIQWVRQAPGQRLEWVGWINGGDGNTKYSQKFQGRVTISRDISASTAYMELSSLRSEDTAVYYCARHRLQRGGFDPWGQGTLVTVSS
VL: EIVLTQSPGTLSLSPGERATLSCRASQSVSYSSLAWYQQKPGQAPSLLIYGASSRATGIPDRFSGSGSGPDFTLTISRLEPEDFAVYYCQHYGNSPYTFGQGTKLEIKR
B2: LF-1 huMAb, plant-produced LF antibody (antibody, V domains shown)
VH: EVQLLESGGGLVQPGGSLRLSCSGSGFMFSSYAMSWVRQAPGKGLEWVSGISGSGGTTNYADSVKGRFTISRDNSKNTLYMQMNSLRAEDTAVYYCAKDGVYGRLGGSDYWGQGTLVTVSS
VL: EIVLTQSPDFQSVSPKEKVTITCRASQSVGSSLHWYQQKPDQSPKLLIKYASQSFSGVPSRFSGSGSGTDFTLTINSLETEDAATYYCHQSSSLPLTFGGGTKVEIKR

Tests used:
[1] = target: Bacillus anthracis protective antigen (PA) polypeptide (Bacillus anthracis, UniProt P13423 30-764); test: Western blot and ELISA, plant-produced antibody
[2] = target: T1, Bacillus anthracis lethal factor (LF) polypeptide (Bacillus anthracis, UniProt P15917 34-809); test: Western blot and ELISA, plant-produced antibody
T1 sequence: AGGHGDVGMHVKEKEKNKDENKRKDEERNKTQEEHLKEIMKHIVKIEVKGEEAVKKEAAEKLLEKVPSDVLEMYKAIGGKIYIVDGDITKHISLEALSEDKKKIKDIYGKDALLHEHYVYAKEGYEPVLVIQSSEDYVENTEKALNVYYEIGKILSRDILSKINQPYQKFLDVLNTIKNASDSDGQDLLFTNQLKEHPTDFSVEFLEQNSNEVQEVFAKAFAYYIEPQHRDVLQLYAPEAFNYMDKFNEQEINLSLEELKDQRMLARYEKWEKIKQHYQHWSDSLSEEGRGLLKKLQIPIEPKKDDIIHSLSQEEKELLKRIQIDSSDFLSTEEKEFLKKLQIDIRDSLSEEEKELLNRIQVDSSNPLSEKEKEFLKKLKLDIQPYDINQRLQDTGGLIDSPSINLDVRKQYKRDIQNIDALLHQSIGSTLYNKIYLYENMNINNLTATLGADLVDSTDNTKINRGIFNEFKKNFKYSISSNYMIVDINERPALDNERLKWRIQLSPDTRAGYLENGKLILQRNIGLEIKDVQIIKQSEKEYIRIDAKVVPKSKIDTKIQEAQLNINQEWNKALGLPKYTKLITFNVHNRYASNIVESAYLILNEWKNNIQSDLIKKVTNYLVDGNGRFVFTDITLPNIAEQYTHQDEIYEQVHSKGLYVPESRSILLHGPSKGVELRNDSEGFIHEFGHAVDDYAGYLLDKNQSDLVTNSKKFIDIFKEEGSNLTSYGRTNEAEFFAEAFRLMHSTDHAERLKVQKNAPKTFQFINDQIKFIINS

Chain of Bacillus anthracis protective antigen (PA) polypeptide (P13423 30-764 limits assumed): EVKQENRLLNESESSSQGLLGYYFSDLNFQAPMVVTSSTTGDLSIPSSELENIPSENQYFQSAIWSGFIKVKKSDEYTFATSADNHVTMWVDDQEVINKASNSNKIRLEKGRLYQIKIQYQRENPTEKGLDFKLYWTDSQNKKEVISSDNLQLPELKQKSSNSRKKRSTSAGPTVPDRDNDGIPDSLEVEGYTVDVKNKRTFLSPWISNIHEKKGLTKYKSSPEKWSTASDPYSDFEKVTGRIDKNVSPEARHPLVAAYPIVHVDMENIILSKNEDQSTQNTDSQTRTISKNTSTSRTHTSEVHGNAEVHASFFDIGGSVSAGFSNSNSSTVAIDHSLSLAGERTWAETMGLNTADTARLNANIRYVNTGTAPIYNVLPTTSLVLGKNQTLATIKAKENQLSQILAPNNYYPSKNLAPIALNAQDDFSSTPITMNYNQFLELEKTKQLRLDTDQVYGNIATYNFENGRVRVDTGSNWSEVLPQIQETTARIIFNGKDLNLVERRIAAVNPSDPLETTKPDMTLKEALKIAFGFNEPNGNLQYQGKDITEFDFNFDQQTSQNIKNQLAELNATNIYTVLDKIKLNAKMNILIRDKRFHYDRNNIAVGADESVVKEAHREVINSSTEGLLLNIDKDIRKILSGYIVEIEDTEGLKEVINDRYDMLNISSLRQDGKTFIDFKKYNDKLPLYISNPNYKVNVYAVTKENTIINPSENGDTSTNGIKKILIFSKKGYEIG

| Binder | binding result [1] | binding result [2] |
| --- | --- | --- |
| B1 | binds | – |
| B2 | – | binds |
